Measured values published in patent US20050176123A1, “Protease inhibitor” (Morinaga Milk Industry Co., Ltd., priority 2002, published 2005).

What was measured:
Assay in all cases: cysteine protease inhibitory activity (Z-Phe-Arg-MCA fluorescence, method of Barrett et al.)
Format in all cases: biochemical
cathepsin B = target: T1, cathepsin B (Homo sapiens, UniProt P07858)
T1 construct: purchased Wako Pure Chemical Industries, Ltd
Description: (§1) Inhibitory activities against cysteine proteases including papain, cathepsin B, cathepsin L and cathepsin S (these proteases are available from Wako Pure Chemical Industries, Ltd.) were determined using commercially available bovine lactoferrin (manufactured by Morinaga Milk Industry Co., Ltd.) as a test sample. The inhibitory activity was measured with reference to the method by Barrett et al. (“Methods in Enzymology,” Vol. 80, p 535-561, 1981) as described below. Namely, Z-Phe-Arg-MCA (final concentration of […]: manufactured by Peptide Institute, Inc.) was added as a substrate to 0.1 M acetic acid buffer solution (pH 5.5) in which sample was dissolved at each concentration. Then, cysteine protease (a protease selected from papain, cathepsin B, cathepsin L and cathepsin S in the present test: manufactured by Wako Pure Chemical Industries, Ltd.) solution (final concentration: 15 units/ml) was added, the whole solution was mixed and the reaction was carried out at 37° C. for 10 minutes. Subsequently, fluorescence intensity (excitation wavelength: 370 nm, emission wavelength: 460 nm) of AMC (7-Amino-4-Methyl-Coumarin) released from the digested substrate was measured with a fluorescence spectrometer (manufactured by Hitachi, Ltd.).

cathepsin L = target: T2, cathepsin L (Homo sapiens, UniProt P07711)
T2 construct: purchased Wako Pure Chemical Industries, Ltd
Description: as §1

papain = target: T3, papain (Carica papaya, UniProt P00784); details: pH 5.5, 37° C., 10 minutes
T3 construct: purchased Wako Pure Chemical Industries, Ltd
T3 sequence (P00784 134-345): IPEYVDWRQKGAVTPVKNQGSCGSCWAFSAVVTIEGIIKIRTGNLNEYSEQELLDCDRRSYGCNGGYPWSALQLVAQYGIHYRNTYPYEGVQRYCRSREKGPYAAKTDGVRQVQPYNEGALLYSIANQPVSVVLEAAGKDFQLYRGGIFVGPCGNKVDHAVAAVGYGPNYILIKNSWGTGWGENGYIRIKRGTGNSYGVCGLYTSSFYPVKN
Description: as §1

[1] = inhibitor 10^−3 M, pH 5.5, 37° C., 10 minutes

T2 sequence (P07711 114-333, species assumed): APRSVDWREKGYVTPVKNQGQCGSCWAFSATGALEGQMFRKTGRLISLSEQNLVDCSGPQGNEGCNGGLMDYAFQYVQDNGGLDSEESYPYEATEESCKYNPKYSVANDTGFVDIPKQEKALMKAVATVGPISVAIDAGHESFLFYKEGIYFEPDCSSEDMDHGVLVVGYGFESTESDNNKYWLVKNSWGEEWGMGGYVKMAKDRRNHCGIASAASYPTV

Substance	cysteine protease-inhibitory activity compared with human lactoferrin peptide Y679-K695 (cathepsin B; similar test to Test Example 5)	cysteine protease-inhibitory activity compared with human lactoferrin peptide Y679-K695 (cathepsin L; similar test to Test Example 5)	inhibition of cysteine protease activity (cathepsin B; [1])	inhibition of cysteine protease activity (cathepsin L; [1])	inhibition rate at each concentration (%) (cathepsin L; inhibitor 10^−4M, pH 5.5, 37° C., 10 minutes)	inhibition of cysteine protease activity (papain; inhibitor 10^−3 M)	inhibition rate at each concentration (%) (papain; inhibitor 10^−4M)
bovine lactoferrin peptide Y676-K692: peptide having amino acid numbers 676-692 of SEQ ID No. 2 (bovine lactoferrin), chemically synthesized (YEEYLGTEYVTAIANLK; sig_peptide (1)...(19) Lactoferrin; listed as Bos taurus)	almost equal to the human lactoferrin peptide Y679-K695	almost equal to the human lactoferrin peptide Y679-K695					
human lactoferrin peptide Y679-K695: peptide having amino acid numbers 679-695 of SEQ ID No. 1 (human lactoferrin), chemically synthesized (YEKYLGPQYVAGITNLK; sig_peptide (1)...(19) Lactoferrin; listed as Homo Sapiens)			~60%	almost completely inhibited	more than 50%	almost completely inhibited	more than 50%
